In article PMC4298681 (The Journal of Cell Biology, 2015):

Target: native Arp2/3 complex purified from Acanthamoeba castellanii (Acanthamoeba castellanii, UniProt P53487 1-388)
Test: pull-down

B1: GST-NIK 340–500 (domain or fragment)
chain: SSIVNVPGESTLRRDFLRLQQENKERSEALRRQQLLQEQQLREQEEYKRQLLAERQKRIEQQKEQRRRLEEQQRREREARRQQEREQRRREQEEKRRLEELERRRKEEEERRRAEEEKRRVEREQEYIRRQLEEEQRHLEILQQQLLQEQAMLLHDHRRPH
Kd: ~213 nM
